Data from article PMC10187114, “Structure of the endosomal Commander complex linked to Ritscher-Schinzel syndrome” (Cell, 2023).
Several values for one entry are separate records, joined by “and”; a condition that tells them apart may be missing. Equal values may be shown once.

Tests used:
[1] = biological target: T1, DENND10 (recombinant) (human, UniProt Q8TCE6 1-357); assay: ITC; 50 μM DENND10 titrated into 10 μM wild type or mutant CCDC22(325–485)+CCDC93(310–488) complex, 100 mM Tris pH 7.4, 300 mM NaCl, 25°C, single site model; settings: both partners purified
T1 construct: DENND10/FAM45A, human; also called FAM45A; recombinant DENND10; source: E. coli BL21 (DE3) (pGEX6P-1), purified (glutathione resin, gel filtration)

[2] = biological target: VPS29 (recombinant) (human, UniProt Q9UBQ0 1-182); assay: ITC; VPS35L peptides at 600 μM titrated into 20 μM VPS29, 100 mM Tris pH 7.4, 300 mM NaCl, 25°C, single site model; settings: both partners purified

T1 sequence (Q8TCE6 whole entry): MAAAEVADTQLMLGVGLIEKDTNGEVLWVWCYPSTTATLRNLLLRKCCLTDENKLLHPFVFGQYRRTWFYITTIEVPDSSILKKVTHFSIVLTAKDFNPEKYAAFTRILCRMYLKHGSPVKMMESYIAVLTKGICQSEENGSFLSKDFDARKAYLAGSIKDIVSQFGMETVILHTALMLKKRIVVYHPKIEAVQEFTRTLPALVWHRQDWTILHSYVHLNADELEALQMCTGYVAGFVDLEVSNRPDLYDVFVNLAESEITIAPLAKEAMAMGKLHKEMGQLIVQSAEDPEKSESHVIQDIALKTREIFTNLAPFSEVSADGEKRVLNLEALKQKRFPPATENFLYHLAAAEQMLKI

B1: CC1-CC2 complex (CCDC22(325–485) + CCDC93(310–488)), wild type (complex, human)
chain 1: VTWAAQEQELESLREQLEGVNRSIEEVEADMKTLGVSFVQAESECRHSKLSTAEREQALRLKSRAVELLPDGTANLAKLQLVVENSAQRVIHLAGQWEKHRVPLLAEYRHLRKLQDCRELESSRRLAEIQELHQSVRAAAEEARRKEEVYKQLMSELETLP
chain 2: GTSQLHRRKVISLNKQIAQKTKHLEELRASHTSLQARYNEAKKTLTELKTYSEKLDKEQAALEKIESKADPSILQNLRALVAMNENLKSQEQEFKAHCREEMTRLQQEIENLKAERAPRGDEKTLSSGEPPGTLTSAMTHDEDLDRRYNMEKEKLYKIRLLQARRNREIAILHRKIDEV
notes: CCDC22, human, CC1 and CC2 coiled-coil regions; CCDC93, human, CC1 and CC2 coiled-coil regions; also called CCDC22-CCDC93; source: E. coli BL21 (DE3), co-expressed (pRSF-duet), purified (Talon, gel filtration)
In the case of B1, the Kd [1] is reported as 34 nM and 28 nM.

B2: CC1-CC2 complex, CCDC93 (M392R) (complex, human)
chain 1: VTWAAQEQELESLREQLEGVNRSIEEVEADMKTLGVSFVQAESECRHSKLSTAEREQALRLKSRAVELLPDGTANLAKLQLVVENSAQRVIHLAGQWEKHRVPLLAEYRHLRKLQDCRELESSRRLAEIQELHQSVRAAAEEARRKEEVYKQLMSELETLP
chain 2: GTSQLHRRKVISLNKQIAQKTKHLEELRASHTSLQARYNEAKKTLTELKTYSEKLDKEQAALEKIESKADPSILQNLRALVARNENLKSQEQEFKAHCREEMTRLQQEIENLKAERAPRGDEKTLSSGEPPGTLTSAMTHDEDLDRRYNMEKEKLYKIRLLQARRNREIAILHRKIDEV
notes: CCDC22, human, CC1 and CC2 coiled-coil regions; CCDC93, human, CC1 and CC2 coiled-coil regions; source: E. coli BL21 (DE3), co-expressed (pRSF-duet), purified (Talon, gel filtration)
In the case of B2, the Kd [1] is reported as 89.1 ± 10 nM.

B3: CC1-CC2 complex, CCDC22 (V360E) (complex, human)
chain 1: VTWAAQEQELESLREQLEGVNRSIEEVEADMKTLGESFVQAESECRHSKLSTAEREQALRLKSRAVELLPDGTANLAKLQLVVENSAQRVIHLAGQWEKHRVPLLAEYRHLRKLQDCRELESSRRLAEIQELHQSVRAAAEEARRKEEVYKQLMSELETLP
chain 2: GTSQLHRRKVISLNKQIAQKTKHLEELRASHTSLQARYNEAKKTLTELKTYSEKLDKEQAALEKIESKADPSILQNLRALVAMNENLKSQEQEFKAHCREEMTRLQQEIENLKAERAPRGDEKTLSSGEPPGTLTSAMTHDEDLDRRYNMEKEKLYKIRLLQARRNREIAILHRKIDEV
notes: as for B2
B3 showed a Kd [1] of 47.9 ± 3.5 nM.

B4: VPS35L (16-38) peptide (peptide)
peptide: EFASCRLEAVPLEFGDYHPLKPI
notes: VPS35L, human, residues 16-38; also called VPS35L peptide (Glu16-Ile38); source: synthetic peptide (Genscript)
Binder B4 has a Kd [2] of 1870 nM.
